Data: article PMC6769490, “Protein Engineering of Multi-Modular Transcription Factor Alcohol Dehydrogenase Repressor 1 (Adr1p), a Tool for Dissecting In Vitro Transcription Activation” (Biomolecules, 2019)
Where “and” joins values, the source holds several entries; their conditions need not be identical. Equal values may be shown once.

Columns and labels:
His-Adr1-165 = target: T1, His-Adr1-165 (Saccharomyces cerevisiae, UniProt P07248 1-165); assay: EMSA; CM + heparin purified; monomer and dimer; 40 mM Na phosphate pH 7.5, 40 mM NaCl, 10% glycerol, 18 uM Zn acetate (+/- 5 mM CHAPS, DTT, spermine), 30 min 4 C; HPLC-purified: 20 mM phosphate pH 7.0, 40 mM; conditions: protein: recombinant; tags: His-tag; label: 33P or none (ethidium bromide); 5' overhang 1 nt at both ends
T1 sequence: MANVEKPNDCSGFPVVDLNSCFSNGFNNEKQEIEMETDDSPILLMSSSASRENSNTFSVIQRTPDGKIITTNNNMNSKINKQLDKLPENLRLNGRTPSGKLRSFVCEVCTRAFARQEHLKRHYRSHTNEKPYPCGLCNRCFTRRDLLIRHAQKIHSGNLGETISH

miniAdr1-BL (untagged) [1] = target: T2, miniAdr1-BL (untagged) (Saccharomyces cerevisiae, UniProt P07248 75-471, del1-74;del179-418;del472-1323); assay: EMSA; no CHAPS, Zn acetate; mostly dimer; 40 mM Na phosphate pH 7.5, 40 mM NaCl, 10% glycerol, 18 uM Zn acetate (+/- 5 mM CHAPS, DTT, spermine), 30 min 4 C; HPLC-purified: 20 mM phosphate pH 7.0, 40 mM; conditions: protein: recombinant; tags: none; chain copies: 2; label: 33P or none (ethidium bromide); 5' overhang 1 nt at both ends
T2 sequence: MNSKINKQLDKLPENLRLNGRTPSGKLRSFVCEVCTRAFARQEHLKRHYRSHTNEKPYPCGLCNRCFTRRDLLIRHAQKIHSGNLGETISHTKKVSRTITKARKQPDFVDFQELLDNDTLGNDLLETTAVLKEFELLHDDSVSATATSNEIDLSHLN

Adr1-DBD (untagged) [2] = target: T3, Adr1-DBD (untagged) (Saccharomyces cerevisiae, UniProt P07248 75-178); assay: EMSA; no CHAPS, Zn acetate; mostly monomer; 40 mM Na phosphate pH 7.5, 40 mM NaCl, 10% glycerol, 18 uM Zn acetate (+/- 5 mM CHAPS, DTT, spermine), 30 min 4 C; HPLC-purified: 20 mM phosphate pH 7.0, 40 mM; conditions: protein: recombinant; tags: none; label: 33P or none (ethidium bromide); 5' overhang 1 nt at both ends
T3 sequence: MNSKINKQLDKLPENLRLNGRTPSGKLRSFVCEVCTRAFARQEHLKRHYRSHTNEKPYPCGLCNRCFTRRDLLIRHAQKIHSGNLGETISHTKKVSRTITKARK

[3] = target: the molecule itself; assay: native gel or EMSA; N-PAGE/EMSA with half site dsDNA (one binding site), no CHAPS; 20, 40 and 80 pmol protein; stoichiometric mixture of both proteins (40 pmol) in lane 7
[4] = target: the molecule itself; assay: SEC; miniAdr1-BL alone, freshly purified and concentrated, no DNA; Superdex G75 on HPLC, 50 mM Na/K phosphate pH 6.9, 150 mM NaCl, 4 mM TCEP, 5 mM CHAPS, 5% glycerol, 3.5 mM spermine, 0.018 mM Zn acetate; 0.4 mL/min; masses from a calibration curve
miniAdr1-BL (untagged) [5] = target: T2, miniAdr1-BL (untagged); assay: EMSA; 5 mM CHAPS, Zn acetate; protein 3.16e-8 to 1e-6 M, DNA 1e-8 M; 40 mM Na phosphate pH 7.5, 40 mM NaCl, 10% glycerol, 18 uM Zn acetate (+/- 5 mM CHAPS, DTT, spermine), 30 min 4 C; HPLC-purified: 20 mM phosphate pH 7.0, 40 mM; conditions: protein: recombinant; tags: none; chain copies: 2; label: 33P (5' kinase label); self-complementary duplex, 5' overhang 4 nt at both ends
Adr1-DBD (untagged) [6] = target: T3, Adr1-DBD (untagged); assay: EMSA; 5 mM CHAPS, Zn acetate; two smeared bands; 40 mM Na phosphate pH 7.5, 40 mM NaCl, 10% glycerol, 18 uM Zn acetate (+/- 5 mM CHAPS, DTT, spermine), 30 min 4 C; HPLC-purified: 20 mM phosphate pH 7.0, 40 mM; conditions: protein: recombinant; tags: none; label: 33P (5' kinase label); self-complementary duplex, 5' overhang 4 nt at both ends
[7] = target: the molecule itself; assay: native gel or EMSA; DNA binding assay with half site dsDNA; partially purified His-tagged Adr1-165 from bacteria (Supplementary Figure S1d, lanes 12-14)
miniAdr1-BL (untagged) [8] = target: T2, miniAdr1-BL (untagged); assay: EMSA; 5 mM CHAPS; hairpin not competent for binding; 40 mM Na phosphate pH 7.5, 40 mM NaCl, 10% glycerol, 18 uM Zn acetate (+/- 5 mM CHAPS, DTT, spermine), 30 min 4 C; HPLC-purified: 20 mM phosphate pH 7.0, 40 mM; conditions: protein: recombinant; tags: none; chain copies: 2; label: 33P; hairpin of a single strand, 5' overhang 4 nt

B1: Half site UAS1 (dsDNA)
DNA 1: TCCGGGCATCTCCAACTTA
DNA 2: CTAAGTTGGAGATGCCCGG
- binding result (His-Adr1-165): binds
- binding result (miniAdr1-BL (untagged) [1]): binds
- binding result (Adr1-DBD (untagged) [2]): binds

B2: Adr1-DBD (residues 75-178), untagged (domain or fragment, Saccharomyces cerevisiae, UniProt P07248 75-178, looked up)
chain: T3 sequence
notes: Alcohol dehydrogenase repressor 1 (Adr1p), Saccharomyces cerevisiae, UniProt P07248; Printed mass 12.4 kDa; also called construct (5); source: Komagataella pastoris X-33, purified (CM sepharose, SEC)
- stoichiometry N [3]: 2

B3: miniAdr1-BL (Adr1_Δ179-418), untagged (domain or fragment, Saccharomyces cerevisiae, UniProt P07248 75-471, looked up)
chain: T2 sequence
notes: Alcohol dehydrogenase repressor 1 (Adr1p), Saccharomyces cerevisiae, UniProt P07248; residues 75-178 (PAR-TAD I with the basic linker 158-178) directly linked to residues 419-471 (core of TAD III); TAD I and TAD III fragments were ligated through inserted BamHI sites; Printed mass 18 kDa; also called construct (4); basic linker construct; source: Komagataella pastoris X-33, cytoplasm, purified …
- stoichiometry N [3]: 2
- stoichiometry N [4]: ~2 and ~3

B4: Palindromic UAS1 (dsDNA)
DNA 1: CCGGCCTCTCCAACTTATAAGTTGGAGAGG
DNA 2: B4 DNA 1
- binding result (miniAdr1-BL (untagged) [5]): binds
- binding result (Adr1-DBD (untagged) [6]): binds

B5: His-tagged Adr1-165 (residues 1-165) (domain or fragment, Saccharomyces cerevisiae, UniProt P07248 1-165, looked up)
chain: T1 sequence
notes: Alcohol dehydrogenase repressor 1 (Adr1p), Saccharomyces cerevisiae, UniProt P07248; residues 1-165, comprising only TAD I; also called HisAdr1-165; His-Adr1-165; source: E. coli BL21(DE3), pET28b, partially purified
- stoichiometry N [7]: 2

Binder: CCGGCCTCTCCAACTTATAAGTTGGAGAGG (structured_DNA) [Palindromic UAS1 hairpin]
- binding result (miniAdr1-BL (untagged) [8]): no binding
